{"source": "patent US20220162331A1", "about": "(CHENGDU CONMED BIOSCIENCES, published 2022)", "key": {"[1]": {"target": "T1, human CD73 on Calu6 cells (human, UniProt P21589 27-549)", "T1 construct": "whole, on cells; Endogenous CD73 of the Calu6 cell line; also called CD73 on cell membrane surface", "T1 sequence (looked up)": "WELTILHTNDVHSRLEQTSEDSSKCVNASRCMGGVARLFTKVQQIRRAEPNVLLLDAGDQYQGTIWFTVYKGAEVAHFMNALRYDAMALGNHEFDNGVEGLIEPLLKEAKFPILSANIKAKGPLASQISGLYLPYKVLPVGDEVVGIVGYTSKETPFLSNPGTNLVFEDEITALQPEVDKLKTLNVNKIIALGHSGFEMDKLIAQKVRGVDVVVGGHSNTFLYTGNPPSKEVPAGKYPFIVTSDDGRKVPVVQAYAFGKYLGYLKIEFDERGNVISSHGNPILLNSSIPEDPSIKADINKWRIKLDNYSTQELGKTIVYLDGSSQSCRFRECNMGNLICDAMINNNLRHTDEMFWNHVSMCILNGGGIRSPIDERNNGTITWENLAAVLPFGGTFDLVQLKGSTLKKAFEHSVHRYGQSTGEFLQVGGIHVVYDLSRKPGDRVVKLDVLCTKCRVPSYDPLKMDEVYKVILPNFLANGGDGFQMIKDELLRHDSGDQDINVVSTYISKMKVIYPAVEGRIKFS", "assay": "FACS on Calu6 cells"}, "[2]": {"target": "T2, recombinant human CD73 extracellular domain (Trp27-Lys546) with C-terminal 6-histidine tag (human, UniProt P21589 27-547)", "T2 sequence": "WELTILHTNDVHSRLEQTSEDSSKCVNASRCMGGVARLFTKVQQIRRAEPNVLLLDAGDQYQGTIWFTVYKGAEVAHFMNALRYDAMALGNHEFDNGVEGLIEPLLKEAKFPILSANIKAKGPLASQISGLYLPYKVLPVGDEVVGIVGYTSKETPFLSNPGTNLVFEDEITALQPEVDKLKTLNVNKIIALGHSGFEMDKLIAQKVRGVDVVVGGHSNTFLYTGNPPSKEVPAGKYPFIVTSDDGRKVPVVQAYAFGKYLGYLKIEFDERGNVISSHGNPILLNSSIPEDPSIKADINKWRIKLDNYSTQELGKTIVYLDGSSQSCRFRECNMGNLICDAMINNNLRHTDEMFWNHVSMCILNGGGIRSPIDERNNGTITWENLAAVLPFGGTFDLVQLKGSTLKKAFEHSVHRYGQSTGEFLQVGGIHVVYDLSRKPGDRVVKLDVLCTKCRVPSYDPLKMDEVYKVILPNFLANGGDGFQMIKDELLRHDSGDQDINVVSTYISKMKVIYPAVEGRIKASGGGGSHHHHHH", "assay": "cell-based or functional assay"}, "[3]": {"target": "T1, human CD73 on Calu6 cells", "assay": "cell-based or functional assay"}, "[4]": {"target": "T1, human CD73 on Calu6 cells", "assay": "cell-based or functional assay", "remark": "listed apart in the source"}, "[5]": {"target": "T3, human full-length CD73 on hCD73-CHO-1C11 cells (human, UniProt P21589 27-549)", "T3 construct": "it may be a nucleotide entry; also called CHO-CD73-1C11", "T3 sequence": "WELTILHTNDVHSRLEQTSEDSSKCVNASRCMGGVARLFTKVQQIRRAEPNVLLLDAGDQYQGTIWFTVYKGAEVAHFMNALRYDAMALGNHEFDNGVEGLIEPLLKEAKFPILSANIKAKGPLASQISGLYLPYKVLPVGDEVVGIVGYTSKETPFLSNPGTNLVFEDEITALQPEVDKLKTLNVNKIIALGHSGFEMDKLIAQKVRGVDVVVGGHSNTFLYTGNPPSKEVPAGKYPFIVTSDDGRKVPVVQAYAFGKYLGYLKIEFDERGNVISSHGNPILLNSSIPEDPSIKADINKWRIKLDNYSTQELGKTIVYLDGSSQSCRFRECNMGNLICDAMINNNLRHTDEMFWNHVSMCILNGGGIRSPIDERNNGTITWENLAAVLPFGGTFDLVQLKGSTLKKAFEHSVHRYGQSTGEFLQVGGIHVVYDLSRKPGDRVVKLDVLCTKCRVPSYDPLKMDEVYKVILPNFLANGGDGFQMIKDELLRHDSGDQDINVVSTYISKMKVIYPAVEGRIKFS", "assay": "FACS on CHO-CD73-1C11 cells"}, "[6]": {"target": "T2, recombinant human CD73 extracellular …", "assay": "ELISA, plate coated with recombinant CD73 extracellular domain"}, "[7]": {"target": "T4, recombinant cynomolgus monkey CD73 extracellular domain (Trp27-Lys546) (cynomolgus monkey, UniProt P21589 27-547 (human entry))", "T4 construct": "also called cynoCD73; recombinant monkey CD73 extracellular domain", "T4 chain": "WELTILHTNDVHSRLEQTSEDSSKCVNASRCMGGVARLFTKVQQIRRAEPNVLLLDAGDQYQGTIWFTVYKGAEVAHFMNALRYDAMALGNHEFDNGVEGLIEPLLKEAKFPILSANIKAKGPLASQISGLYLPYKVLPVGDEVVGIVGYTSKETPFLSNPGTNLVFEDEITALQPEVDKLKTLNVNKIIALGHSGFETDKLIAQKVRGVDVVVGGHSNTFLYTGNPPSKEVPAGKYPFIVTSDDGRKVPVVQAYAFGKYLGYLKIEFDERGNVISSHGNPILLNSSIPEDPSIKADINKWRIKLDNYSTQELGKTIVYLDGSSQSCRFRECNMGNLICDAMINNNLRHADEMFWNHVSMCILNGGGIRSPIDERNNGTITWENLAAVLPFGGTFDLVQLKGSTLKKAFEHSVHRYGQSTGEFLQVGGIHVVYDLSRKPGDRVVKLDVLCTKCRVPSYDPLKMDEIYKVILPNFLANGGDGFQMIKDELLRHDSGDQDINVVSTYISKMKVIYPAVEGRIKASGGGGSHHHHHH", "assay": "ELISA, plate coated with recombinant CD73 extracellular domain"}, "[8]": {"target": "T2, recombinant human CD73 extracellular …", "assay": "SPR, Biacore T200, antibody captured on Protein A chip, hCD73 ECD as analyte, 1:1 Langmuir", "procedure": "The affinity of CD73 antibody was determined by plasma surface resonance on Biacore T200. At room temperature, the antibody concentration was diluted to 0.5 μg/mL with 1×HBS-EP buffer (prepared from HBS-EP+Buffer 10×, GE, BR1008-26), the Protein A chip (GE, 29-1275-56) was coated with a flow rate of 10 μL per minute, the capture time was about 40 seconds, and the coated RU value was controlled to be about 100 RU. The recombinant human CD73 extracellular domain protein was diluted to 3 μg/mL with 1×HBS-EP buffer, diluted to two-fold gradient, a total of 6 concentrations, 200 μL of each concentration gradient. The 1×HBS-EP buffer was used as a control, the flow rate was 30 μl/min, the binding time was 120 seconds, and the dissociation time was 600 seconds. The affinity was fitted using Langmuir 1:1 Kinetic theoretical model and analyzed by Biacore T200 Evaluation Software (Table 3)."}, "[9]": {"target": "T1, human CD73 on Calu6 cells", "assay": "cell-based or functional assay", "remark": "listed apart in the source"}}, "note": "Read-outs that look alike come from different tables or passages of the source."}
{"binder": "CD73 antibody 6G8 (chimeric) (antibody, V domains shown, Mouse variable regions on human IgG heavy chain constant region and human kappa constant region (chimeric IgG); also called Clone 6G8; 6G8 Chimera) VH: QVTLKESGPGILKPSQTLSLTCSFSGFSLNTSGMGVGWIRQPSGKGLEWLAHIWWDDDKYYNPSLKSQLTISKDTSRNQVFLRIASVDTADTATYYCARRERWAWFAYWGQGTLVTVSA VL: DIVMTQSQKFMSASVGDRVSVTCKASQNVFTNVAWYQQKPGQSPKVLIYSASYRYSGVPDRFTGSGSGTDFTLTINNVQSEDLAEYFCQQYNSYPTFGSGTKLEIK", "values": [{"measurement": "EC50", "setting": "[1]", "value": 1.03, "unit": "nM"}, {"measurement": "Inhibition of CD73 enzyme activity IC50(nM), Soluble CD73", "setting": "[2]", "value": 1.03, "unit": "nM"}, {"measurement": "Inhibition of CD73 enzyme activity IC50(nM), Calu6", "setting": "[3]", "value": 1.72, "unit": "nM"}, {"measurement": "CD73 endocytosis ratio %, 30 minutes", "setting": "[4]", "value": 17.1, "unit": "%"}, {"measurement": "CD73 endocytosis ratio %, 60 minutes", "setting": "[4]", "value": 38.5, "unit": "%"}, {"measurement": "CD73 endocytosis ratio %, 120 minutes", "setting": "[4]", "value": 22.2, "unit": "%"}, {"measurement": "CD73 endocytosis ratio %, 240 minutes", "setting": "[4]", "value": 35.3, "unit": "%"}, {"measurement": "CD73 endocytosis ratio %, 480 minutes", "setting": "[4]", "value": 47.7, "unit": "%"}, {"measurement": "EC50", "setting": "[5]", "value": 1.91, "unit": "nM"}, {"measurement": "EC50", "setting": "[6]", "value": 0.02, "unit": "nM"}, {"measurement": "EC50", "setting": "[7]", "value": 0.02, "unit": "nM"}, {"measurement": "Kd", "setting": "[8]", "value": 0.18, "unit": "nM"}, {"measurement": "koff", "setting": "[8]", "value": 0.000111, "unit": "s⁻¹"}, {"measurement": "kon", "setting": "[8]", "value": 617000, "unit": "M⁻¹ s⁻¹"}]}
{"binder": "humanized anti-CD73 antibody 6G8 VH-v8/VK-v4 (antibody, V domains shown, Human IgG1 CH1-CH3 constant region and kappa constant region; also called hu6G8 VHv8 + hu6G8 VkV4) VH: QVTLRESGPALVKPTQTLTLTCTFSGFSLSTSGMGVGWIRQPPGKALEWLAHIWWDEDKYYNPSLKSRLTISKDTSKNQVVLTMTNMDPVDTATYYCARRERWAWFAYWGQGTLVTVSS VL: EIVMTQSPATLSVSPGERATLSCRASQNVFTNVAWYQQKPGQAPRVLIYSASYRYSGIPARFSGSGSGTEFTLTISSLQSEDFAVYFCQQYNSYPTFGQGTKLEIK", "values": [{"measurement": "CD73 endocytosis ratio %, 0 minute", "setting": "[9]", "value": 0, "unit": "%"}, {"measurement": "CD73 endocytosis ratio %, 30 minutes", "setting": "[9]", "value": 28, "unit": "%"}, {"measurement": "CD73 endocytosis ratio %, 120 minutes", "setting": "[9]", "value": 37, "unit": "%"}, {"measurement": "CD73 endocytosis ratio %, 240 minutes", "setting": "[9]", "value": 46, "unit": "%"}, {"measurement": "Kd", "setting": "[8]", "value": 0.257, "unit": "nM"}, {"measurement": "koff", "setting": "[8]", "value": "8.48e-05", "unit": "s⁻¹"}, {"measurement": "kon", "setting": "[8]", "value": 330000, "unit": "M⁻¹ s⁻¹"}]}
